Test results taken from article PMC5378477, “Crystal structure and dynamics of a lipid-induced potential desensitized-state of a pentameric ligand-gated channel” (eLife, 2017).

Molecular target: the molecule itself
Experiment: crystal structure; GLIC wt in DDM with 50 uM DHA and 0.5 mg/ml E. coli polar extract; sitting drop at 4 °C, sodium acetate pH 3.9-4.2, ammonium sulfate, PEG4000; 3.25 Å

B1: GLIC wt (natural protein)
chain: QDMVSPPPPIADEPLTVNTGIYLIECYSLDDKAETFKVNAFLSLSWKDRRLAFDPVRSGVRVKTYEPEAIWIPEIRFVNVENARDADVVDISVSPDGTVQYLERFSARVLSPLDFRRYPFDSQTLHIYLIVRSVDTRNIVLAVDLEKVGKNDDVFLTGWDIESFTAVVKPANFALEDRLESKLDYQLRISRQYFSYIPNIILPMLFILFISWTAFWSTSYEANVTLVVSTLIAHIAFNILVETNLPKTPYMTYTGAIIFMIYLFYFVAVIEVTVQHYLKVESQPARAASITRASRIAFPVVFLLANIILAFLFFGF
notes: GLIC, prokaryotic pH-gated pentameric ligand-gated ion channel; construct as in Hilf and Dutzler 2009 and Bocquet et al. 2009; residues 5-315 are named in the structure; Homopentamer; Crystallised with 50 uM DHA and E. coli polar lipids; also called GLIC-pH4-DHA (the structure solved here); source: E. coli C43, purified (amylose resin, SEC in DDM); not shown: MBP, N-terminal, cleaved
stoichiometry N: 5
